# Values of other authors in doi:10.1101/390104.
# Tests used:
# Test in all cases: NMR
# Details in all cases: folded inactive HdeA dimer, client-free (inferred from context); cited from earlier work
# Asp47 = Asp47 (UniProt position 68, KDKPEDAVLDV)
# Asp51 = Asp51 (UniProt position 72, EDAVLDVQGIA)
# Glu46 = Glu46 (UniProt position 67, NKDKPEDAVLD)
substance,measurement,setting,value
Acid stress chaperone HdeA (wild type) (Escherichia coli),pKa,Asp47,4.14
same,pKa,Asp51,3.83
same,pKa,Glu46,4.07
